Laboratory results as given in patent US20250179589A1, “SYNTHETIC LETHALITY AND THE TREATMENT OF CANCER” (PACYLEX PHARMACEUTICALS INC., priority 2012, published 2025).

Columns and labels:
Jurkat T cells = assay: Effect of HMA on the induction of apoptosis, immunoblot; assay type: cell-based, human
Experimental: HMA was saponified and conjugated to bovine serum albumin (BSA) prior to addition to cells to facilitate its cellular uptake as described previously (Yap et al., 2010). Briefly, HMA was incubated with a 20% molar excess of potassium hydroxide (KOH) at 65° C. for 15 min. Subsequently, a 20× solution was made by dissolving the KOH saponified HMA in serum-free RPMI media containing 20% fatty acid-free BSA at 37° C., followed by an additional 15 min incubation at 37° C. Since sodium myristate was used as a control, it was also incubated in serum-free RPMI media containing 20% fatty acid-free BSA at 37° C. prior to addition to cells. Subsequently, Jurkat T cells (1×10^7 cells) were incubated with either 1 mM HMA or 1 mM sodium myristate conjugated to fatty-acid free BSA (final concentration in cell culture 1%) for 1 h at 37° C. in RPMI media (without FBS, supplements or antibiotics). After incubation, apoptosis was induced using anti-Fas (150 ng/mL) or STS (2.5 μM) with cycloheximide (5 μg/mL) or vehicle alone (DMSO). Samples were collected every 2 h for an 8 h period, washed with cold PBS and lysed with 0.3 mL of 1% sodium dodecyl sulfate (SDS)-radio-immuno-precipitation assay (RIPA) buffer and subjected to 2 rounds of sonication for 15 seconds at an output of 5.5-6.5 on a Branson Sonifier and placed on ice for 2 min in between each cycle. […]

[1] = biological target: myristoylatable decapeptide corresponding to the N-terminal sequence of ct-Bid; assay: cell-based or functional assay
His-NMT1 (recombinant …) = biological target: T1, His-NMT1 (recombinant hexahistidine-tagged full-length human N-myristoyltransferase 1), P30419
T1 chain: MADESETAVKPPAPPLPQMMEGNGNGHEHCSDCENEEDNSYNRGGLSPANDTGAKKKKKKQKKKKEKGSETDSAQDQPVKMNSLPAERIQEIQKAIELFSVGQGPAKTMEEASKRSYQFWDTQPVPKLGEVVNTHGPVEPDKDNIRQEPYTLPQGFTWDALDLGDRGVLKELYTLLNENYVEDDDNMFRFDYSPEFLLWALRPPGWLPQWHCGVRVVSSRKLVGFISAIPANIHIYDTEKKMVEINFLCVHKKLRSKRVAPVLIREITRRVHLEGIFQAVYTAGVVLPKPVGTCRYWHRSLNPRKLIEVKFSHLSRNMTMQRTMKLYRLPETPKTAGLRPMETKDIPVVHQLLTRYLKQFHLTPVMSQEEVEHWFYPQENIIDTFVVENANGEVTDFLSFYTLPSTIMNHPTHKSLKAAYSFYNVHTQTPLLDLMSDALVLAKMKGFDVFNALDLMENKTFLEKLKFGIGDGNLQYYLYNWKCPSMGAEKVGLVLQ

His-NMT2 (recombinant …) = biological target: T2, His-NMT2 (recombinant hexahistidine-tagged full-length human N-myristoyltransferase 2), O60551
T2 chain: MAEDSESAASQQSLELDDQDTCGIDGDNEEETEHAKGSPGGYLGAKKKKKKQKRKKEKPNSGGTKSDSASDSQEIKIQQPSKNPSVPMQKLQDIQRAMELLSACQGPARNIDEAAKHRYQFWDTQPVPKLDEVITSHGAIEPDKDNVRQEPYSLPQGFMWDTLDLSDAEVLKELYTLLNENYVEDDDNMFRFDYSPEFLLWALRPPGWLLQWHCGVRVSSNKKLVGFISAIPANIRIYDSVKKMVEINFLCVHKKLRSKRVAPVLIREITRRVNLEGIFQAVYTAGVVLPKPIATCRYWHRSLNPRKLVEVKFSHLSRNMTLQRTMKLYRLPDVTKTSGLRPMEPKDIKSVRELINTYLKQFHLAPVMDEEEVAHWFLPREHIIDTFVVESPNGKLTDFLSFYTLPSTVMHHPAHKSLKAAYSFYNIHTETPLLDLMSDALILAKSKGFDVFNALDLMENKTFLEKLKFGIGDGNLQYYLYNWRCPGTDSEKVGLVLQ

[2] = biological target: T3, myristoylatable decapeptide corresponding to the N-terminal sequence of ct-Bid
T3 chain: GNRSSHSRLG

CCCCCCCCCCCCC(O)C(=O)O (stereo not shown) [HMA, 2-hydroxymyristic acid]
time by which cleavage of PARP-1 occurred sooner than with 1 mM sodium myristate (Jurkat T cells; 1 mM HMA and anti-Fas): 2 h | PARP-1 and PAK2 cleavage vs STS and 1 mM sodium myristate (Jurkat T cells; HMA/STS, 2 h post induction): more PARP-1 and PAK2 cleavage

V5-NMT1 (N-terminally V5-tagged NMT1) (from UniProt P30419 1-496) (enzyme)
NMT activity in lysates of transfected COS-7 cells relative to cells expressing V5-NMT2 (peptide myristoylation assay) [1]: 5 fold

B1: recombinant human active caspase-3 (protein)
chain: SGISLDNSYKMDYPEMGLCIIINNKNFHKSTGMTSRSGTDVDAANLRETFRNLKYEVRNKNDLTREEIVELMRDVSKEDHSKRSSFVCVLLSHGEEGIIFGTNGPVDLKKITNFFRGDRCRSLTGKPKLFIIQACRGTELDCGIETDSGVDDDMACHKIPVEADFLYAYSTAPGYYSWRNSKDGSWFIQSLCAMLKQYADKLEFMHILTRVNRKVATEFESFSFDATFHAKKQIPCIVSMLTKELYFYH
in vitro NMT cleavage assay (Coomassie stained gel) (His-NMT1 (recombinant …)): Reconstitution of NMT1 cleavage by caspases-8 and -3, and, NMT2 cleavage by caspase-3 in vitro | in vitro NMT cleavage assay (Coomassie stained gel) (His-NMT2 (recombinant …)): Reconstitution of NMT1 cleavage by caspases-8 and -3, and, NMT2 cleavage by caspase-3 in vitro

B2: His-26NMT2 (His-tagged caspase-cleaved, truncated human NMT2) (protein)
chain: GDNEEETEHAKGSPGGYLGAKKKKKKQKRKKEKPNSGGTKSDSASDSQEIKIQQPSKNPSVPMQKLQDIQRAMELLSACQGPARNIDEAAKHRYQFWDTQPVPKLDEVITSHGAIEPDKDNVRQEPYSLPQGFMWDTLDLSDAEVLKELYTLLNENYVEDDDNMFRFDYSPEFLLWALRPPGWLLQWHCGVRVSSNKKLVGFISAIPANIRIYDSVKKMVEINFLCVHKKLRSKRVAPVLIREITRRVNLEGIFQAVYTAGVVLPKPIATCRYWHRSLNPRKLVEVKFSHLSRNMTLQRTMKLYRLPDVTKTSGLRPMEPKDIKSVRELINTYLKQFHLAPVMDEEEVAHWFLPREHIIDTFVVESPNGKLTDFLSFYTLPSTVMHHPAHKSLKAAYSFYNIHTETPLLDLMSDALILAKSKGFDVFNALDLMENKTFLEKLKFGIGDGNLQYYLYNWRCPGTDSEKVGLVLQ
NMT activity (filter-based peptide myristoylation assay) [2]: both full-length and caspase cleaved truncated NMT1 and NMT2 were catalytically active when compared to the control | NMT activity relative to full-length NMT2 (filter-based peptide myristoylation assay) [2]: ˜3-fold (His-26NMT2) ... more activity when compared to full-length NMT2

B3: recombinant human active caspase-8 (protein)
chain: SESQTLDKVYQMKSKPRGYCLIINNHNFAKAREKVPKLHSIRDRNGTHLDAGALTTTFEELHFEIKPHDDCTVEQIYEILKIYQLMDHSNMDCFICCILSHGDKGIIYGTDGQEAPIYELTSQFTGLKCPSLAGKPKVFFIQACQGDNYQKGIPVETDSEEQPYLEMDLSSPQTRYIPDEADFLLGMATVNNCVSYRNPAEGTWYIQSLCQSLRERCPRGDDILTILTEVNYEVSNKDDKKNMGKQMPQPTFTLRKKLVFPSD
in vitro NMT cleavage assay (Coomassie stained gel) (His-NMT1 (recombinant …)): Reconstitution of NMT1 cleavage by caspases-8 and -3, and, NMT2 cleavage by caspase-3 in vitro

B4: His-68NMT2 (His-tagged caspase-cleaved, truncated human NMT2) (protein)
chain: SASDSQEIKIQQPSKNPSVPMQKLQDIQRAMELLSACQGPARNIDEAAKHRYQFWDTQPVPKLDEVITSHGAIEPDKDNVRQEPYSLPQGFMWDTLDLSDAEVLKELYTLLNENYVEDDDNMFRFDYSPEFLLWALRPPGWLLQWHCGVRVSSNKKLVGFISAIPANIRIYDSVKKMVEINFLCVHKKLRSKRVAPVLIREITRRVNLEGIFQAVYTAGVVLPKPIATCRYWHRSLNPRKLVEVKFSHLSRNMTLQRTMKLYRLPDVTKTSGLRPMEPKDIKSVRELINTYLKQFHLAPVMDEEEVAHWFLPREHIIDTFVVESPNGKLTDFLSFYTLPSTVMHHPAHKSLKAAYSFYNIHTETPLLDLMSDALILAKSKGFDVFNALDLMENKTFLEKLKFGIGDGNLQYYLYNWRCPGTDSEKVGLVLQ
NMT activity (filter-based peptide myristoylation assay) [2]: both full-length and caspase cleaved truncated NMT1 and NMT2 were catalytically active when compared to the control | NMT activity relative to full-length NMT2 (filter-based peptide myristoylation assay) [2]: ˜4-fold (His-68NMT2) more activity when compared to full-length NMT2

B5: His-NMT2 (recombinant hexahistidine-tagged full-length human N-myristoyltransferase 2) (protein)
chain: MAEDSESAASQQSLELDDQDTCGIDGDNEEETEHAKGSPGGYLGAKKKKKKQKRKKEKPNSGGTKSDSASDSQEIKIQQPSKNPSVPMQKLQDIQRAMELLSACQGPARNIDEAAKHRYQFWDTQPVPKLDEVITSHGAIEPDKDNVRQEPYSLPQGFMWDTLDLSDAEVLKELYTLLNENYVEDDDNMFRFDYSPEFLLWALRPPGWLLQWHCGVRVSSNKKLVGFISAIPANIRIYDSVKKMVEINFLCVHKKLRSKRVAPVLIREITRRVNLEGIFQAVYTAGVVLPKPIATCRYWHRSLNPRKLVEVKFSHLSRNMTLQRTMKLYRLPDVTKTSGLRPMEPKDIKSVRELINTYLKQFHLAPVMDEEEVAHWFLPREHIIDTFVVESPNGKLTDFLSFYTLPSTVMHHPAHKSLKAAYSFYNIHTETPLLDLMSDALILAKSKGFDVFNALDLMENKTFLEKLKFGIGDGNLQYYLYNWRCPGTDSEKVGLVLQ
NMT activity (filter-based peptide myristoylation assay) [2]: both full-length and caspase cleaved truncated NMT1 and NMT2 were catalytically active when compared to the control

B6: His-73NMT1 (His-tagged caspase-cleaved, truncated human NMT1) (protein)
chain: SAQDQPVKMNSLPAERIQEIQKAIELFSVGQGPAKTMEEASKRSYQFWDTQPVPKLGEVVNTHGPVEPDKDNIRQEPYTLPQGFTWDALDLGDRGVLKELYTLLNENYVEDDDNMFRFDYSPEFLLWALRPPGWLPQWHCGVRVVSSRKLVGFISAIPANIHIYDTEKKMVEINFLCVHKKLRSKRVAPVLIREITRRVHLEGIFQAVYTAGVVLPKPVGTCRYWHRSLNPRKLIEVKFSHLSRNMTMQRTMKLYRLPETPKTAGLRPMETKDIPVVHQLLTRYLKQFHLTPVMSQEEVEHWFYPQENIIDTFVVENANGEVTDFLSFYTLPSTIMNHPTHKSLKAAYSFYNVHTQTPLLDLMSDALVLAKMKGFDVFNALDLMENKTFLEKLKFGIGDGNLQYYLYNWKCPSMGAEKVGLVLQ
NMT activity (filter-based peptide myristoylation assay) [2]: both full-length and caspase cleaved truncated NMT1 and NMT2 were catalytically active when compared to the control

B7: His-NMT1 (recombinant hexahistidine-tagged full-length human N-myristoyltransferase 1) (protein)
chain: MADESETAVKPPAPPLPQMMEGNGNGHEHCSDCENEEDNSYNRGGLSPANDTGAKKKKKKQKKKKEKGSETDSAQDQPVKMNSLPAERIQEIQKAIELFSVGQGPAKTMEEASKRSYQFWDTQPVPKLGEVVNTHGPVEPDKDNIRQEPYTLPQGFTWDALDLGDRGVLKELYTLLNENYVEDDDNMFRFDYSPEFLLWALRPPGWLPQWHCGVRVVSSRKLVGFISAIPANIHIYDTEKKMVEINFLCVHKKLRSKRVAPVLIREITRRVHLEGIFQAVYTAGVVLPKPVGTCRYWHRSLNPRKLIEVKFSHLSRNMTMQRTMKLYRLPETPKTAGLRPMETKDIPVVHQLLTRYLKQFHLTPVMSQEEVEHWFYPQENIIDTFVVENANGEVTDFLSFYTLPSTIMNHPTHKSLKAAYSFYNVHTQTPLLDLMSDALVLAKMKGFDVFNALDLMENKTFLEKLKFGIGDGNLQYYLYNWKCPSMGAEKVGLVLQ
NMT activity (filter-based peptide myristoylation assay) [2]: both full-length and caspase cleaved truncated NMT1 and NMT2 were catalytically active when compared to the control
